Substitutions are numbered along the chain they refer to.

B1: H1H5771P (antibody, human IgG1, V domains shown)
VH: EVQLVESGGGLVQPGRSLRLSCAASGFSFDNYAMHWVRQAPGQGLEWVSGISWNSGSRDYADSVKGRFTISRDNARNSLFLQMNSLSNEDTAMYYCAKDKSGYGSYFYGMDVWGQGTTVTVSS
VL: EIVLTQSPGTLSLSPGDRATLSCRASQSIRNIYLAWYQQKPGQAPRLLIHGASTRATGIPDRFSGSGSGTDFTLTISRLEPEDFAVYYCQQRVSLPYTFGQGTKLEIK
notes: H1H: human IgG1 Fc; divalent
B2: H1H5772S (antibody, V domains shown)
VH: B1 VH with E1Q, N31D, S55G, S87F, N88T, M93L
VL: B1 VL with T10I, L95S
notes: H1H: human IgG1 Fc; divalent; also called H1H5772P
B3: H1H5780P (antibody, human IgG1, V domains shown)
VH: EVQLVESGGGLVQPGRSLRLSCAASGFTFDDYAMHWVRQAPGKGLEWVSGISWNGGSKDYADSVKGRFTISRDNTRNSLSLQMNSLRIEDTALYYCAKDKSGYGSFYYGLDVWGQGTTVTVSS
VL: B1 VL with N31S, L95S
notes: H1H: human IgG1 Fc; divalent
B4: H1H2712N (antibody, human IgG1, V domains shown)
VH: EVQLVESGGGLVQPGGSLRLSCAATGFTFDDFTMHWVRQAPGKGLEWVSGISWNSGSIGYVDSVKGRFTISRDNAKNSLYLQMNSLRAEDTALYYCAKDNSGYGYYYYGMDVWGQGTTVTVSS
VL: EIVMTQSPATLSVSPGERATLSCRASHSVSRNSAWYQQKPGQAPRLLIYGASTRATGIPARFSGSGSGTEFTLTISSLQSEDFAIYYCQQYNNWPLTFGGGTKVEIK
notes: H1H: human IgG1 Fc; divalent
B5: H1H5763P (antibody, human IgG1, V domains shown)
VH: QVQLVESGGGVVQPGRSLRLSCAASGLTFSSYGMHWVRQAPGKGLEWVAVISYDGSNKYYTDSVKGRFTISRDNSKNTLYLQMNSLRAEDTAVYYCAKGAMVRGVPYNYYYGMDVWGQGTTVTVSS
VL: DIQMTQSPSSLSASVGDRVTITCRASQGIRNDLGWYQQKPGKAPKRLIYAASSLQSGVPSRFSGSGSGTEFTLTISSLQPEDFATYYCLQHNSYPYTFGQGTKLEIK
notes: H1H: human IgG1 Fc; divalent
B6: H1H5764P (antibody, human IgG1, V domains shown)
VH: B5 VH with L27F, S30R, Y32F, S56N, N57Y, T61A, Y94H, Y109F
VL: B5 VL with G28V, V58I
notes: H1H: human IgG1 Fc; divalent
B7: H1H5756B (antibody, human IgG1, V domains shown)
VH: EVQLVESGGGVVQPGRSLRLSCTASGFPFSRYGMHWVRQAPGKGLEWVTFIWYDGSNKYYADSAKGRFTITRDNSKNTVYLQMDSLRADDTAVYYCVRDQAALYYFDSWGQGTLVTVSS
VL: DIQMTQSPSSVSASVGDRVTITCRASQGISRWLAWYQQKPGKAPKLLISAASSLQSGVPSRFSGSGSGTDFTLTISGLQPEDFATYYCQKANSFPFTFGPGTKLEIKR
notes: H1H: human IgG1 Fc; divalent
B8: H1H5778P (antibody, human IgG1, V domains shown)
VH: EVQLVESGGGLVQPGRSLRLSCVASGFTFADFTMHWVRQAPGKGLEWVSGISWNSNSIDYADSVKGRFTISRDNAKKSLFLQMSSLRAEDTALYYCVKDRSGYSRFYYGMDVWGQGTTVTVSS
VL: EIVMTQSPATLSVSPGERAILSCRASQNINSNLAWYQQKPGQAPRLLIYGASTRATGVPARFSGSGSGTEFTLTIRSLQSEDFAVYYCQQYYNWPITFGHGTRLEIK
notes: H1H: human IgG1 Fc; divalent
B9: H1H5755B (antibody, human IgG1, V domains shown)
VH: EVQLVESGGGVVQPGRSLRLSCAASGFTFSNYGMHWVRQAPGKGLEWVTVILHDGSYKYYADSVKGRFTISRDNSKNTLHLQMNSLRTEDTAVYYCAKGPMFRGVPYNHYYGMDVWGQGTTVTVSS
VL: DIQMTQSPSSLSASVGDRVTITCRASQGIRNDLGWYQQKPGKAPKRLIYAASSLQSGVSSRFSGSGSGTEFTLTISSLQPEDFATYYCLQHNSYPYTFGQGTKVEIKR
notes: H1H: human IgG1 Fc; divalent
B10: H1H5757B (antibody, human IgG1, V domains shown)
VH: B9 VH with N31S, Y57N, K58R, Y60S, H80Y, S85I, T88V, A97T, P100A, F102V
VL: B9 VL with S53I, S59P, V104L
notes: H1H: human IgG1 Fc; divalent
B11: H1H5758B (antibody, human IgG1, V domains shown)
VH: B9 VH with N31S, Y57N, K58R, H80Y, S85I, T88A, A97T, P100A, F102V
VL: B9 VL with Q3V, S53N, S59P, V104L
notes: H1H: human IgG1 Fc; divalent

The target of the first experiment is T1, Soluble heterodimeric CD3 protein (hCD3-epsilon/hCD3-delta) with either a human Fc tag (hFcΔAdp/hFc) or a … (human, UniProt P07766 23-126; P04234 22-105).
T1 construct: also called hCD3ε/δ; not shown: Fc tag: human (hFcΔAdp/hFc)
T1 sequence (P07766 23-126 limits assumed, stated change not applied, chain 1 of 2): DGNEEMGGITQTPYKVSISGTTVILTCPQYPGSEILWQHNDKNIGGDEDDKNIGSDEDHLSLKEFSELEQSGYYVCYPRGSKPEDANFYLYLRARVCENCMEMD
T1 sequence (P04234 22-105 limits assumed, stated change not applied, chain 2 of 2): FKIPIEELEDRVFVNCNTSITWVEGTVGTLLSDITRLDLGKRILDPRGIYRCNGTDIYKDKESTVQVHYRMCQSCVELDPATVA
Kind of experiment: SPR Biacore 25C antibody-capture. Here is the method:
(§1) Measurements were conducted on a T200 Biacore™ instrument.
Soluble heterodimeric CD3 protein (hCD3-epsilon/hCD3-delta; SEQ ID NOs:1652/1653) with either a human Fc tag (hFcΔAdp/hFc; SEQ ID NOs:1683/1684) or a mouse Fc tag (mFcΔAdp/mFc; SEQ ID NOs:1685/1686) was injected over the antibody captured surface and the binding response was recorded. Heterodimeric CD3 protein was purified using the method described in Davis et al. (US2010/0331527).
(§2) Kinetic association (kₐ) and dissociation (kd) rate constants were determined by processing and fitting the data to a 1:1 binding model using Scrubber 2.0 curve fitting software. Binding dissociation equilibrium constants (KD) and dissociative half-lives (t₁₁₂) were calculated from the kinetic rate constants as: KD (M)=kd/kₐ; and t_{1/2} (min)=(ln 2/(60*kd). NT=not tested; NB=no binding observed.
(In general: In SPR one partner is held on a chip, and binding of the other changes the refractive index at the surface.)
A word on the Kd: it is a measure of binding affinity in units of concentration. Usually koff stands for a measure of how fast the partners let go of each other. The low end stands for a long-lived complex, the high end for a short-lived complex. As usually defined, the kon is the second-order rate constant of association. Take B1: binding was characterised by a dissociation constant (Kd) of 20.9 nM, the “T½” value stood at 18 min, the off-rate constant (koff) stood at 0.000626 s⁻¹ and the on-rate (kon) turned out to be 30000 M⁻¹ s⁻¹.

B2: the equilibrium dissociation constant (Kd) is 99.6 nM, the “T½” value is 7 min, the koff was found to be 0.00155 s⁻¹ and the on-rate (kon) was 15600 M⁻¹ s⁻¹.

With B3, the Kd was determined as 30.4 nM, the “T½” value was determined as 29 min, the koff is 0.000399 s⁻¹ and the kon was 13100 M⁻¹ s⁻¹.

As to B4, the Kd turned out to be 88.2 nM, the “T½” value amounted to 43 min, the off-rate constant (koff) is 0.00027 s⁻¹ and the on-rate constant (kon) was determined as 3060 M⁻¹ s⁻¹.

In the case of B5, the equilibrium dissociation constant (Kd) was found to be 2920 nM, the “T½” value amounted to 0 min, the koff is 0.054 s⁻¹ and the kon stood at 18500 M⁻¹ s⁻¹.

B6: the Kd amounted to 3820 nM, the “T½” value worked out at 1 min, the koff came out at 0.0159 s⁻¹ and the on-rate (kon) was 4160 M⁻¹ s⁻¹.

On to B7, for which the dissociation constant (Kd) worked out at 32.6 nM, the “T½” value was 43 min, the dissociation rate constant (koff) was 0.000266 s⁻¹ and the kon came to 8150 M⁻¹ s⁻¹.

For the molecule B8, the dissociation constant (Kd) was 27.8 nM, the “T½” value came to 75 min, the koff was 0.000154 s⁻¹ and the association rate constant (kon) was found to be 5520 M⁻¹ s⁻¹.

For the molecule B9, binding was characterised by a dissociation constant (Kd) of 57.5 nM, the “T½” value came out at 24 min, the off-rate constant (koff) is 0.000472 s⁻¹ and the kon was 8210 M⁻¹ s⁻¹.

Turning to B10, the Kd turned out to be 118 nM, the “T½” value was found to be 15 min, the koff is 0.000785 s⁻¹ and the kon was 6630 M⁻¹ s⁻¹.

In the case of B11, the equilibrium dissociation constant (Kd) came out at 233 nM, the “T½” value amounted to 10 min, the koff was determined as 0.00117 s⁻¹ and the kon was found to be 5020 M⁻¹ s⁻¹.

A further experiment deals with T1, Soluble heterodimeric CD3 protein …. Kind of experiment: SPR Biacore 25C antigen-capture. Here is the method: as §1
In the antigen-capture format, heterodimeric CD3 protein was captured using a rabbit anti-mouse Fc or mouse anti-human Fc and the respective antibodies were injected over the captured antigen.
as §2
B1: binding was characterised by a dissociation constant (Kd) of 0.371 nM, the “T½” value was 34 min, the off-rate constant (koff) amounted to 0.000342 s⁻¹ and the on-rate (kon) stood at 923000 M⁻¹ s⁻¹.

B2: the Kd is 1.67 nM, the “T½” value came out at 13 min, the koff was determined as 0.000869 s⁻¹ and the kon worked out at 519000 M⁻¹ s⁻¹.

For B3, the dissociation constant Kd is 0.358 nM, the “T½” value is 68 min, the koff was found to be 0.000171 s⁻¹ and the on-rate (kon) is 478000 M⁻¹ s⁻¹.

In the case of B4, the Kd came out at 0.971 nM, the “T½” value stood at 133 min, the koff was 8.68e-05 s⁻¹ and the kon is 89300 M⁻¹ s⁻¹.

Consider B5, for which the Kd was found to be 92.4 nM, the “T½” value amounted to 1 min, the koff is 0.017 s⁻¹ and the kon worked out at 184000 M⁻¹ s⁻¹.

As to B6, the Kd was 21 nM, the “T½” value was found to be 2 min, the koff was found to be 0.00736 s⁻¹ and the kon amounted to 350000 M⁻¹ s⁻¹.

On to B7, for which the dissociation constant Kd was 0.767 nM, the “T½” value was found to be 105 min, the koff came to 0.000111 s⁻¹ and the kon worked out at 144000 M⁻¹ s⁻¹.

As to B8, binding was put at a Kd of 0.0856 nM, the “T½” value amounted to 338 min, the koff came to 3.42e-05 s⁻¹ and the kon amounted to 399000 M⁻¹ s⁻¹.

As for B9, the Kd was 0.936 nM, the “T½” value is 57 min, the off-rate (koff) came to 0.000201 s⁻¹ and the kon turned out to be 215000 M⁻¹ s⁻¹.

As to B10, the dissociation constant Kd worked out at 1.64 nM, the “T½” value turned out to be 39 min, the koff was 0.000295 s⁻¹ and the kon worked out at 180000 M⁻¹ s⁻¹.

With B11, the affinity, expressed as Kd, was 3.97 nM; the “T½” value stood at 21 min; the off-rate constant (koff) came out at 0.000562 s⁻¹; the kon was 142000 M⁻¹ s⁻¹.

These data come from patent US20190127480A1 (Regeneron, published 2019).
